Test results published in patent US20180037892, “EPCAM APTAMERS AND CONJUGATES THEREOF” (Deakin University, published 2018).

What was measured:
EpCAM [1] = target: T1, EpCAM (UniProt P16422 P16422:24-314); experiment: flow; HEY cells, 37 C; not internalised; settings: tags: native EpCAM on HT29 or HEY cells; label: 5' TYE665; hairpin
T1 sequence: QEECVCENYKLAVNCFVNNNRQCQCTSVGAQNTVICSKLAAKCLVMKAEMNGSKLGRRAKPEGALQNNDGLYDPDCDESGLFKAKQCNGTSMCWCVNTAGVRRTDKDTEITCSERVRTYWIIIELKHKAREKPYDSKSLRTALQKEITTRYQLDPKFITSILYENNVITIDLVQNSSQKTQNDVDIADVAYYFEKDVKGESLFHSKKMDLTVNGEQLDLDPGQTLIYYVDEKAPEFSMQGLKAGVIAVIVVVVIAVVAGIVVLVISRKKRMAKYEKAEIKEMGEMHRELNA

EpCAM [2] = target: T1, EpCAM; experiment: flow; HT29 cells, 37 C; no binding to EpCAM-negative HEK293T and K562; settings: tags: native EpCAM on HT29 or HEY cells; label: 5' TYE665; hairpin
Description: (§1) The equilibrium dissociation constant (KD) of each DNA EpCAM aptamer (Ep7, Ep8 and Ep9) was determined by measuring its binding to native EpCAM protein expressed on the cell surface using flow cytometry. HT29, HEY and HEK293T (5×10⁵) cells were first incubated with blocking buffer (PBS containing 10% FCS, 1 mg/mL tRNA, 1 mg/mL BSA) for 30 minutes followed by a single wash with binding buffer (PBS containing 10% FCS, 1 mg/mL tRNA, 1 mg/mL BSA) prior to incubation with serial dilutions of concentrations of the respective TYE665-labelled aptamers (0 to 200 nM) in binding buffer for 30 min at 37° C. The cells were washed three times with PBS and resuspended in PBS prior to flow cytometric analysis. The fluorescent intensity was determined using a FACS Canto II flow cytometer (Becton Dickinson), counting 10,000 events for each sample. The mean fluorescent intensity of each concentration was subtracted from that of the auto fluorescent control and the KD for each aptamer was calculated from the normalised values for fluorescent intensity.

EpCAM [3] = target: T1, EpCAM; experiment: flow; HEY cells, 37 C; settings: tags: native EpCAM on HT29 or HEY cells, label: 5' TYE665, hairpin
Description: as §1

EpCAM [4] = target: T1, EpCAM; experiment: flow; HEY cells, 5 mM MgCl2 folding, 37 C; settings: tags: native EpCAM on HT29 or HEY cells; label: 5' TYE665; two hairpins
Description: (§2) In order to determine the binding affinity (equilibrium dissociation constant KD) of the aptamers. Binding assays were conducted to measure the binding to native EpCAM protein expressed on the cell surface. The aptamers were incubated with the cells at concentrations ranging from 0 nM to 400 nM. These were subsequently analysed by flow cytometry. Aptamers were thawed from storage (−20° C.) prior to use. These were then diluted via serial dilutions with phosphate buffered saline (PBS) in order to achieve the desired concentrations. PBS was supplemented with a MgCl₂ concentration appropriate for the aptamer (1 mM for anti-TfR aptamers; 5 mM for conjugate aptamers). Aptamers were then folded into their 3D structures using a thermocycler (85° C. for 5 minutes, slow cooling to 22° C. over 10 minutes and 37° C. for 15 minutes).
(§3) The binding affinities of aptamers Bi1, Bi2 and Bi3 were determined semi-quantitatively via flow cytometry, using bEnd.3 cells to assess reactivity with TfR, HEY cells to determine EpCAM specificity and the MOLT4 cell line as a negative control. Three independent binding assays were performed for these aptamer against all three cell lines (bEnd.3, HEY and MOLT4).

[5] = target: T2, Transferrin receptor (TfR) (Mus musculus, UniProt Q62351 Q62351:1-763); experiment: flow; bEnd.3 cells, 5 mM MgCl2 folding, 37 C; settings: tags: native TfR on bEnd.3 mouse cerebral endothelial cells; chain copies: 2; label: 5' TYE665; two hairpins
T2 sequence (Q62351 whole entry, one chain of several): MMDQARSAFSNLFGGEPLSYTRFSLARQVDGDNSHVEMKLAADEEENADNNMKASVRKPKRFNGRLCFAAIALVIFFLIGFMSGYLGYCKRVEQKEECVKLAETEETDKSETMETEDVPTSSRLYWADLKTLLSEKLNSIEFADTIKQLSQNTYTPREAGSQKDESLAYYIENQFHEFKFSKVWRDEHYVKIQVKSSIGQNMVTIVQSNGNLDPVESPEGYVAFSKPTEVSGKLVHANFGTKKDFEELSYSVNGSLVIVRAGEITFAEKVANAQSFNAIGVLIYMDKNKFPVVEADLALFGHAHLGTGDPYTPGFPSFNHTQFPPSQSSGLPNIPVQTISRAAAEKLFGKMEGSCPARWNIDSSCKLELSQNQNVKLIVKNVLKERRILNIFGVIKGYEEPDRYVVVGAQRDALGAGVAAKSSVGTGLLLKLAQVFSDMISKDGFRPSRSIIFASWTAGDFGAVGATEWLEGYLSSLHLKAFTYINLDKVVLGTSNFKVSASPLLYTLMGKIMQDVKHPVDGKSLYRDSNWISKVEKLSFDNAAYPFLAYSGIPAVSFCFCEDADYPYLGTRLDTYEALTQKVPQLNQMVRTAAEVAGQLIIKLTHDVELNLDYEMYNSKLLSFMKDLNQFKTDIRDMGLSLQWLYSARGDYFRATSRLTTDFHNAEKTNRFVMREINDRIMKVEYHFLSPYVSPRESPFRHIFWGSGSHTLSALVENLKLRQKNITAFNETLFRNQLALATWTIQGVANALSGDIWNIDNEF
Description: as §2, §3

[6] = target: T2, Transferrin receptor (TfR); experiment: flow; bEnd.3 cells, 5 mM MgCl2 folding, 37 C; text gives 305.5; settings: tags: native TfR on bEnd.3 mouse cerebral endothelial cells; chain copies: 2; label: 5' TYE665; two hairpins
Description: as §2, §3

[7] = target: T2, Transferrin receptor (TfR); experiment: flow; bEnd.3 cells, 1 mM MgCl2 folding, 37 C; settings: tags: native TfR on bEnd.3 mouse cerebral endothelial cells; chain copies: 2; label: 5' TYE665; hairpin
[8] = target: T2, Transferrin receptor (TfR); experiment: flow; bEnd.3 cells, 5 mM MgCl2 folding, 37 C; not internalised; settings: tags: native TfR on bEnd.3 mouse cerebral endothelial cells; chain copies: 2; label: 5' TYE665; two hairpins
Description: as §2, §3

EpCAM [9] = target: T1, EpCAM; experiment: flow; HEY cells, scrambled EpCAM loop, 5 mM MgCl2 folding, 37 C; settings: tags: native EpCAM on HT29 or HEY cells; label: 5' TYE665; two hairpins
Description: as §2, §3

[10] = target: T2, Transferrin receptor (TfR); experiment: flow; bEnd.3 cells, 1 mM MgCl2 folding, 37 C; text gives 365.6; settings: tags: native TfR on bEnd.3 mouse cerebral endothelial cells; chain copies: 2; label: 5' TYE665; hairpin

Q: How did the Kd (EpCAM [1]) turn out when CGCGCGCCGCATTCCTTTTGCGGCGCGCGT (ssDNA, 3' inverted dT [30 (3' inverted dT)]) [Scr Ex Ep7 (scrambled extended Ep7)] was run?
A: 521 nM

Q: Which results are given for GGGGTTGGCCCCT (ssDNA, 3' inverted dT [13 (3' inverted dT)]) [Ep9]?
A: Kd (EpCAM [2]): 31.8 nM; Kd (EpCAM [3]): 266 nM

Q: Which results are given for GCGCGGTACCGCGCTAACGGAGGTTGCGTCCGT (ssDNA, 3' inverted dT) [Bi3 (TEPP, TfR3 loop + Ep7 loop conjugate)]?
A: Kd (EpCAM [4]): 219 nM; Kd [5]: 342 nM

Q: Which results are given for GCGCGGGCCCGCGCTAACGGAGGTTGCGTCCGT (ssDNA, 3' inverted dT) [Bi2 (TfR2 loop + Ep7 loop conjugate)]?
A: Kd (EpCAM [4]): 205 nM; Kd [6]: 305 nM

Q: Which Kd [7] does the source give for GCGTGTGCACACGC (ssDNA, 3' inverted dT) [TfR1] here?
A: 5760 nM

Q: How did the Kd (EpCAM [3]; 10 bp stem) turn out when CGCGCGCCGCAGGTTGCGTGCGGCGCGCGT (ssDNA, 3' inverted dT [30 (3' inverted dT)]) [Ex Ep7 (extended Ep7)] was run?
A: 63.7 nM

Q: With GCGTGGGCCCACGC (ssDNA, 3' inverted dT) [TfR2] as the binder, how does the Kd [7] read?
A: 525 nM

Q: For GCGCGTGCACGCGCTAACGGATTCCTTTTCCGT (ssDNA, 3' inverted dT) [Bi1 (TENN conjugate, TfR1 loop + scrambled Ep7 loop)], which Kd [8] is on record?
A: 1690 nM

Q: What about the Kd (EpCAM [9]) of the same binder?
A: 921 nM

Q: How did the Kd [10] turn out when GCGTGGTACCACGC (ssDNA, 3' inverted dT) [TfR3] was run?
A: 366 nM
